Laboratory results: patent US20080305501A1

Biological target: chimeric receptor comprising mouse TNFR1 external domain (residues 1-210 of SEQ ID NO:1) linked to the transmembrane and intracellular domains of mouse RANK (residues 210-625 of SEQ ID NO:2) (mouse)
Assay: cell-based or functional assay

Chain of chimeric receptor comprising mouse TNFR1 external domain (residues 1-210 of SEQ ID NO:1) linked to the transmembrane and intracellular domains of mouse RANK (residues 210-625 of SEQ ID NO:2) (mouse) (chain, as listed by the source mutant): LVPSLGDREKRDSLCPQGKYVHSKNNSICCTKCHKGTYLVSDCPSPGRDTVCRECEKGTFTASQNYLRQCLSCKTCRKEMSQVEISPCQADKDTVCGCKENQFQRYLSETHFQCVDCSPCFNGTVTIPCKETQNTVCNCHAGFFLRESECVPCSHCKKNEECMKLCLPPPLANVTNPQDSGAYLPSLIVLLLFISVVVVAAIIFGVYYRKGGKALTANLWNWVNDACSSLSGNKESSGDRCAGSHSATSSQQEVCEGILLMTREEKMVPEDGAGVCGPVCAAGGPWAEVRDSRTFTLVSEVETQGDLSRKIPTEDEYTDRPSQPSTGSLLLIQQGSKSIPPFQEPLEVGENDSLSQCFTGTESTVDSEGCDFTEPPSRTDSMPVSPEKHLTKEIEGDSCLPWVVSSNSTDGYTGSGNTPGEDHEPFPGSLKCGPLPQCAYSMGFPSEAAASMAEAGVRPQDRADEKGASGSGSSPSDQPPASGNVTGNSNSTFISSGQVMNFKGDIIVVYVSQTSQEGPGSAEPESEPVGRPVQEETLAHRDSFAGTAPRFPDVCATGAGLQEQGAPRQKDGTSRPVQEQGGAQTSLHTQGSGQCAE

osteoclast formation; lowest TNFα concentration still active: 1 ng/mL
Substance: Recombinant mouse TNFα (410-TRNC-050, R&D Systems) (from UniProt P06804 80-235) (ligand)
